Results published in patent US8940501.

Target: receptor of interferon alpha (printed only as 'receptor'), on Daudi cells
Experiment: cell-based or functional assay

IC50 (pg/mL), inhibition of Daudi cell proliferation: 15.5 pg/mL
Substance: commercially available IFNα (from UniProt P01563 24-188) (ligand)
